Measurements published in patent publication US20030170763A1.

Target: 30 kDa ragweed complete pollen extract disulfide protein allergen (Ambrosia trifida (giant ragweed))
Experiment: Concanavalin A affinity chromatography

Q: Which percent retained on affinity column does the source give for “Concanavalin A (from UniProt P02866 30-281)” here?
A: > 90%
